Laboratory results published in the supplement of paper PMC7125110.
± gives the standard error. For some assays here: Fewer inactive variants are shown than the library holds.

B1: glmS ribozyme (parent)
chain: AUAAAAGCGCCAGAACUACAGAAAUGUAGUUGACGAGGAGGAGGUUUAUCGAAUUUUCGGCGGAUGCCUCCAAA

Columns and labels:
Settings in all cases: with glucosamine-6-phosphate
glucosamine-6-phosphate [1] = variants of: B1; test: kcat; higher = faster cleavage; RNA array
Method in brief: (§1)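 In situ transcription by E. coli RNA polymerase produced barcoded ribozyme variants on sequenced MiSeq chips, and a hybridised Cy3 probe tracked them at 37 °C. Glucosamine-6-phosphate was flowed in at 40 μM to 10 mM in HEPES/KCl/Mg(OAc)2 buffer. kcat and KM were taken from weighted Michaelis–Menten fits of kobs values from exponential decay fits.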

glucosamine-6-phosphate [2] = variants of: B1; test: KM; higher = weaker cofactor use; RNA array
Method in brief: as §1

glucosamine-6-phosphate [3] = variants of: B1; test: self-cleavage kobs at 640 uM GlcN6P; higher = faster cleavage; RNA array
Method in brief: as §1

glucosamine-6-phosphate [4] = variants of: B1; test: self-cleavage kobs at 2500 uM GlcN6P; higher = faster cleavage; RNA array
Method in brief: as §1

glucosamine-6-phosphate [5] = variants of: B1; test: self-cleavage kobs at 10000 uM GlcN6P; higher = faster cleavage; RNA array
Method in brief: as §1

glucosamine-6-phosphate [6] = variants of: B1; test: self-cleavage kobs at 40 uM GlcN6P; higher = faster cleavage; RNA array
Method in brief: as §1

glucosamine-6-phosphate [7] = variants of: B1; test: self-cleavage kobs at 160 uM GlcN6P; higher = faster cleavage; RNA array
Method in brief: as §1

| Variant | kcat (glucosamine-6-phosphate [1]) [s⁻¹] | KM (glucosamine-6-phosphate [2]) [µM] | self-cleavage kobs at 640 uM GlcN6P (glucosamine-6-phosphate [3]) [s⁻¹] | self-cleavage kobs at 2500 uM GlcN6P (glucosamine-6-phosphate [4]) [s⁻¹] | self-cleavage kobs at 10000 uM GlcN6P (glucosamine-6-phosphate [5]) [s⁻¹] | self-cleavage kobs at 40 uM GlcN6P (glucosamine-6-phosphate [6]) [s⁻¹] | self-cleavage kobs at 160 uM GlcN6P (glucosamine-6-phosphate [7]) [s⁻¹] |
| --- | --- | --- | --- | --- | --- | --- | --- |
| AUAAAAGCGCCAGACCUACAGAAAUGUAGCUGACGAGGAGGAGGUUUAUCGGAUUUUCGGCGCAUGCCUCCAAA | < 1e-05 | – | – | – | – | – | – |
| AUAAAAGCGCUAGAACUACAGAAAUGUAGUUGACGAGGAGGAGGUUUAUCGAACUCUCGGCGGAUGCCUCCAAA | 0.000628 ± 6.2e-05 | 8410 ± 1200 | 4.18e-05 ± 1.9e-05 | 0.000151 ± 4.7e-05 | 0.000337 ± 9.5e-05 | – | – |
| AUAAAAGCGCCAGAACUACAGAAAUGUAGUAGACGAGGAGGAGGGUUAUCGAAUUUUCGGCGGAUGCCUCCAAA | 0.0028 ± 0.00084 | 1730 ± 710 | 0.000882 ± 0.00014 | 0.00203 ± 0.00033 | 0.00194 ± 0.00049 | 7.39e-05 ± 1.2e-05 | 0.000168 ± 4e-05 |
| AUAAAAGCGCCAGAACUACAGAAAUGUAAUUGACGAGGAGGAGGUUUAUCGAAUUUUCGGCGGAUGCAUCCAAA | 1.61e-05 ± 4.9e-06 | – | – | – | – | < 1e-05 | – |
| AUAAAAGCGCCAGAACUACAGAAAUGUAGUAGACGAGGAGGAGGUUUAUCGAAUUUUCGGCGGAGGCCUCCAAA | 0.00228 ± 0.00054 | 2390 ± 1000 | 0.000521 ± 8.8e-05 | 0.000854 ± 0.00019 | 0.00205 ± 0.00027 | 3.37e-05 ± 1.5e-05 | 0.000211 ± 6.2e-05 |
| AUAAAAGCGCCAGAACUACAGAAAUGUAAUUGACGAUGAGGAGGUUUAUCGAAUUUUCGGCGGAUGCCUCCAAA | < 1e-05 | – | – | – | – | – | – |
| AUAAAAGCGUCGGAACUACAGAAAUGUAGUUGACGAGGAGGAGGUUUAUCGAAUUUUCGGCGGAUGCCUCCAAA | 2.19e-05 ± 1.8e-06 | 2150 ± 870 | – | – | – | – | – |
| AUAAAAGCGCCAGAACUACAGAAAUGUAGUUGACGAGGAGGAGUAUUAUCGAAUUUUCGGCGGAUGCCUCCAAA | 0.000658 ± 0.00016 | 1820 ± 740 | 0.000175 ± 3.5e-05 | 0.000478 ± 9.7e-05 | 0.00046 ± 0.00014 | – | – |
| AUAAAAGCGCCAGAACUACAGAAAUGUAGUUGACGAGGAGGAGGUUUAACGAAUUUUCGGUGGAUGCCUCCAAA | < 1e-05 | – | – | – | – | – | – |
| AUAAAAGCGCCAGAACUACAGAAAUGUAGUUGACGAGUAGGAGGUUUAUCGAAUUUUCGGCGGAUUCCUCCAAA | < 1e-05 | – | < 1e-05 | – | – | – | < 1e-05 |
| AUAAAAGCGCCAGAACUACAGAAAUGUAUUUGACGAGGAGGAGGUUUAUAGAAUUUUCGGCGGAUUCCUCCAAA | 1.4e-05 ± 4.4e-06 | – | – | – | – | – | – |
| AUAAAAGCGACAGAACUACAGAAAUGUAGUUGACGAGGAGGAGGUUUAUCGAAUUUUCGGCGGAUGUCUCGAAA | 2.93e-05 ± 1.4e-05 | – | – | – | – | – | – |
| AUAAAAGCGCCAGAACUACAGAAAUGUAGUUGACGAGGCGGAGGUUAAUCGAAUUUUCGGCGGAUGCCUCCAAA | 0.00575 ± 0.0015 | 4090 ± 1400 | 0.000865 ± 0.0001 | 0.0021 ± 0.00033 | 0.00409 ± 0.00043 | 8.72e-05 ± 1.3e-05 | 0.000179 ± 2.3e-05 |
| AUAAAAGCGCCAGUGCUACAGAAAUGUAGUUGACGAGGAGGAAGUUUAUCGAAUUUUCGGCGGAUGCCUCCAAA | 1.46e-05 ± 6.9e-06 | – | – | – | – | – | – |
| AUAAAAGCGCCAGAACUACAGAAAUGUAGUUGACGAGGAGGAGGUUUAUCGAAUUUACGGCGGAUGCCUGCAAA | 3.91e-05 ± 1.5e-05 | – | 4.96e-05 ± 1.4e-05 | 6.55e-05 ± 1.6e-05 | – | – | – |
| AUAAAAGCGCCAGAACUACAGAAAUGUAGUUCACGAGGAGGAGGUUUAUCUAAUUUUCGGCGGAUGCCUCCAAA | < 1e-05 | – | – | – | – | – | – |
| AUAAAAGCGCCAGAAGUACAGAAAUGUAGUUGACGAGGAGGAGGUUAAUCGAAUUUUCGGCGGAUGCCUCCAAA | 0.00274 ± 0.00078 | 1710 ± 700 | 0.000755 ± 0.00013 | 0.00124 ± 0.0002 | 0.00329 ± 0.00047 | 6.21e-05 ± 9.9e-06 | 0.00027 ± 3.9e-05 |
| AUAAAAGCGCCAGAACUACAGAAAUGUAAUUGCCGAGGAGGAGGUUUAUCGAAUUUUCGGCGGAUGCCUCCAAA | 5.32e-05 ± 1.2e-05 | – | – | 5.47e-05 ± 1.8e-05 | 4.65e-05 ± 1.4e-05 | < 1e-05 | – |
| AUAAAAGCGCCUGAACUACAGAAAUGUAGUUGACGAGGAGGAGGUUUAUCGAAUUUUCGGAGCAUGCCUUCAAA | 3.89e-05 ± 1.1e-05 | – | – | 4.79e-05 ± 1.7e-05 | – | – | 3.45e-05 ± 1.3e-05 |
| AUAAAAGCGCCAGAACUACAGAAAUGUAGUUGACGAGGAGGAGGUUUAUGGAAUUUUCGGCGGAUGCCGCCAAA | 0.000141 ± 7.4e-06 | – | 0.000151 ± 2.4e-05 | 0.000126 ± 2e-05 | 0.000141 ± 1.5e-05 | 0.000135 ± 1.6e-05 | 0.000165 ± 3e-05 |
| AUAAAAGCGCCAGAACUACAGAAAUGUAGUUGAUGAGGAGGAGGUUUAUCGAAUUUUCGGCGGAUGCAUCCAAA | 1.2e-05 ± 1.8e-06 | – | – | – | – | – | – |
| AUAAAAGCGCCAGAACUACAGAAAUGUAGUUGACGAGGAGGAGGUUUAUAGAAUGUUCGGCGGAUGCCUCCAAA | 2.27e-05 ± 2.2e-06 | – | – | – | – | – | – |
| AUAAAAGCGCUAUAACUACAGAAAUGUAGUUGACGAGGAGGAGGUUUAUCGAAUUUUCGGCGGAUGCCUCCAAA | 6.21e-05 ± 5.4e-06 | 1020 ± 420 | – | 4.88e-05 ± 9.5e-06 | 5.47e-05 ± 8.2e-06 | – | – |
